Data reported in patent CN116836273A (DONGGUAN PENGZHI BIOTECHNOLOGY CO LTD, dated 2023).
Changes are numbered by the printed parent chain. Each block holds one binder with its values, some of them ahead of it.

How the values were obtained:
[1] = target: T1, 血清淀粉样蛋白A (Serum amyloid A, SAA) (UniProt P0DJI8 19-122, limits assumed); assay: BLI, antibody captured on AMC sensor, SAA in solution
T1 construct: Bought antigen
T1 sequence (looked up): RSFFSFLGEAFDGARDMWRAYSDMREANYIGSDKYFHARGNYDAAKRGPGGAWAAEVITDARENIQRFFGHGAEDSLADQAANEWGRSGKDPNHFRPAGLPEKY

[2] = target: T1, 血清淀粉样蛋白A (Serum amyloid A, SAA); assay: indirect ELISA, SAA coated at 2 ug/ml, antibody at 15 ng/ml
[3] = target: T1, 血清淀粉样蛋白A (Serum amyloid A, SAA); assay: indirect ELISA, SAA coated at 2 ug/ml, antibody at 30 ng/ml
[4] = target: T1, 血清淀粉样蛋白A (Serum amyloid A, SAA); assay: indirect ELISA, SAA coated at 2 ug/ml, antibody at 60 ng/ml
[5] = target: T1, 血清淀粉样蛋白A (Serum amyloid A, SAA); assay: indirect ELISA, SAA coated at 2 ug/ml, antibody at 7.5 ng/ml
[6] = target: T1, 血清淀粉样蛋白A (Serum amyloid A, SAA); assay: indirect ELISA, SAA coated at 2 ug/ml, antibody at 3.75 ng/ml
[7] = target: T1, 血清淀粉样蛋白A (Serum amyloid A, SAA); assay: indirect ELISA, SAA coated at 2 ug/ml, antibody at 0 ng/ml (blank)

Kd [1]: 0.906 nM
koff [1]: 6.67e-05 s⁻¹
kon [1]: 73600 M⁻¹ s⁻¹
OD [2]: 1.23 OD450 (ref. 630 nm)
OD [3]: 1.95 OD450 (ref. 630 nm)
OD [4]: 2.26 OD450 (ref. 630 nm)
OD [5]: 0.767 OD450 (ref. 630 nm)
OD [6]: 0.474 OD450 (ref. 630 nm)
OD [7]: 0.011 OD450 (ref. 630 nm)
B1: Anti-SAA 9G5mut1 (antibody, mouse IgG2a, kappa)
heavy: EVHLQQSGAELVTPGASVKLSCTASGFNIKDTYMHWVKQRPEQGLEWIGRIDPANGNTKYDPKFQGKATMTADTSSNTAYLQLSSLTSEDTAVYYCARGGNYDWGQGTTLSVSSAKTTAPSVYPLAPVCGDTTGSSVTLGCLVKGYFPEPVTLTWNSGSLSSGVHTFPAVLQSDLYTLSSSVTVTSSTWPSQSITCNVAHPASSTKVDKKIEPRGPTIKPCPPCKCPAPNLLGGPSVFIFPPKIKDVLMISLSPIVTCVVVDVSEDDPDVQISWFVNNVEVHTAQTQTHREDYNSTLRVVSALPIQHQDWMSGKEFKCKVNNKDLPAPIERTISKPKGSVRAPQVYVLPPPEEEMTKKQVTLTCMVTDFMPEDIYVEWTNNGKTELNYKNTEPVLDSDGSYFMYSKLRVEKKNWVERNSYSCSVVHEGLHNHHTTKSFSRTPGK
light: DIVLTQSPASLAVSLGQRATISCKASQSVDYDGYSYLNWYQQKPGQPPKLLISAASNLESGIPARFSGSGSGTDFTLNIHPVEEEDAATYYCQQSNEDPYTFGGGTKLQIKRADAAPTVSIFPPSSEQLTSGGASVVCFLNNFYPKDINVKWKIDGSERQNGVLNSWTDQDSKDSTYSMSSTLTLTKDEYERHNSYTCEATHKTSTSPIVKSFNRNEC
notes: Recombinant monoclonal antibody made in CHO cells, a mutant of Anti-SAA 9G5

Kd [1]: 0.875 nM
koff [1]: 6.52e-05 s⁻¹
kon [1]: 74500 M⁻¹ s⁻¹
OD [2]: 1.3 OD450 (ref. 630 nm)
OD [3]: 2.01 OD450 (ref. 630 nm)
OD [4]: 2.31 OD450 (ref. 630 nm)
OD [5]: 0.801 OD450 (ref. 630 nm)
OD [6]: 0.501 OD450 (ref. 630 nm)
OD [7]: 0.011 OD450 (ref. 630 nm)
B2: Anti-SAA 9G5mut2 (antibody, mouse IgG2a, kappa)
heavy: B1 heavy
light: B1 light with I21L
notes: as for B1

Kd [1]: 0.897 nM
koff [1]: 6.75e-05 s⁻¹
kon [1]: 75200 M⁻¹ s⁻¹
OD [2]: 1.13 OD450 (ref. 630 nm)
OD [3]: 1.51 OD450 (ref. 630 nm)
OD [4]: 2.21 OD450 (ref. 630 nm)
OD [5]: 0.635 OD450 (ref. 630 nm)
OD [6]: 0.386 OD450 (ref. 630 nm)
OD [7]: 0.007 OD450 (ref. 630 nm)
B3: Anti-SAA 4B3mut1 (antibody, mouse IgG1, kappa, V domains shown)
VH: QVQLQQSGAELVKPGASVKLSCKTSGYTFTNKYIYWLKQRPGQGLEWIGEIDPSNGATKFNEKFTNKATLTVDRSSTTAYVELSSLTSEDSAVYYCARGAYWGHGTLVTVSA
VL: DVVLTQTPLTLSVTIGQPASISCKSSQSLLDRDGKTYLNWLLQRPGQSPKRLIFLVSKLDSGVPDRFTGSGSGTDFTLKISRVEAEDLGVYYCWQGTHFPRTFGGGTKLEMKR
notes: Recombinant monoclonal antibody made in CHO cells, a mutant of Anti-SAA 4B3
